According to paper PMC9637814, “Aurora A–mediated pyruvate kinase M2 phosphorylation promotes biosynthesis with glycolytic metabolites and tumor cell cycle progression” (The Journal of Biological Chemistry, 2022):

How the values were obtained:
His-PKM2 = target: T1, His-PKM2 (human, UniProt P14618 1-531); assay: pull-down; GST-tagged protein on resin incubated with purified His-PKM2 for 2 h at 4 °C, eluted with 10 mM GSH in 50 mM Tris pH 8.0, immunoblot; details: both partners purified
T1 construct: full-length PKM2 cloned into the EcoRI/BamHI sites of pET-22b; also called His-tagged PKM2; His-PKM2 WT; source: E. coli, purified (nickel column)
T1 sequence (P14618 whole entry): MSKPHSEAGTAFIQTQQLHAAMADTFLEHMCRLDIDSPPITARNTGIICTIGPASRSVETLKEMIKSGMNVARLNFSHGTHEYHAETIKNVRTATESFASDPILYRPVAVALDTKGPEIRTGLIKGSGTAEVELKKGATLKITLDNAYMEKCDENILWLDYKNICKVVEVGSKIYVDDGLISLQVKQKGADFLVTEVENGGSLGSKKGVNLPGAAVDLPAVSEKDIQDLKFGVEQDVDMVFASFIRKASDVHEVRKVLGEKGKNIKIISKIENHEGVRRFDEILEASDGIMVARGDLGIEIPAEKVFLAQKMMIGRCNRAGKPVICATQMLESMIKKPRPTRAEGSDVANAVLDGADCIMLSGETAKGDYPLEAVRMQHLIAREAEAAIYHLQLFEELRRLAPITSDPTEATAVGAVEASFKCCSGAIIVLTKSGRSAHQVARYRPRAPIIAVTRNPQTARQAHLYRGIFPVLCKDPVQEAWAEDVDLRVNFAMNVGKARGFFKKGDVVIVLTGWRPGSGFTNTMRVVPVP

[1] = target: the molecule itself; assay: cross-linking; Flag-PKM2 purified on Flag beads from H1299 extracts, DSS crosslinking (1.5 mM, room temperature, 30 min), immunoblot
[2] = target: the molecule itself; assay: SEC-MALS; 1 mg/ml protein in 150 mM NaCl, 20 mM Tris pH 7.5; Superdex 200 Increase, 0.3 ml/min; tetramer and monomer

B1: GST-Aurora A (natural protein, human, UniProt O14965 1-403, looked up)
chain: MDRSKENCISGPVKATAPVGGPKRVLVTQQFPCQNPLPVNSGQAQRVLCPSNSSQRIPLQAQKLVSSHKPVQNQKQKQLQATSVPHPVSRPLNNTQKSKQPLPSAPENNPEEELASKQKNEESKKRQWALEDFEIGRPLGKGKFGNVYLAREKQSKFILALKVLFKAQLEKAGVEHQLRREVEIQSHLRHPNILRLYGYFHDATRVYLILEYAPLGTVYRELQKLSKFDEQRTATYITELANALSYCHSKRVIHRDIKPENLLLGSAGELKIADFGWSVHAPSSRRTTLCGTLDYLPPEMIEGRMHDEKVDLWSLGVLCYEFLVGKPPFEANTYQETYKRISRVEFTFPDFVTEGARDLISRLLKHNPSQRPMLREVLEHPWITANSSKPSNCQNKESASKQS
notes: full-length Aurora A cloned into the BamH/XhoI sites of p-GEX-5X-3
- binding result (His-PKM2): binds

B2: shRNA-resistant Flag-PKM2 T45A (natural protein)
chain: not shown
notes: Flag-tagged human PKM2 T45A with two silent nucleotide substitutions in the shRNA-targeted region, in the pGIPZ system; Monomer and tetramer are both spoken of; 4 copies is the tetramer seen by cross-linking; also called PKM2 T45A mutant; source: H1299 with endogenous PKM2 knocked down, retroviral expression, purified on Flag beads
- stoichiometry N [1]: 4

B3: His-PKM2 T45A mutant (natural protein)
chain: not shown
notes: Monomer and tetramer are both spoken of; source: E. coli, purified
- stoichiometry N [2]: 4
